Test results as given in PMC12748787.

Target: Trx-CaV1.2 JBM (mouse) (UniProt Q01815)
Assay: ITC

Chain of Trx-CaV1.2 JBM (mouse) (Q01815 1647-1777): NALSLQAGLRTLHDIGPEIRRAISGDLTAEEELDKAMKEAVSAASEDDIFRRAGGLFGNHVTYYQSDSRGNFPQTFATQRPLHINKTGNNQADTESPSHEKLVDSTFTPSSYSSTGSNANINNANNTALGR

For “JPH2 NT A399S (A405S in mouse JPH2) (from UniProt Q9ET78 1-440) (domain or fragment)”, the fold reduction in binding affinity against the wild type was 3 fold.
For “JPH2 NT E85K (from UniProt Q9ET78 1-440) (domain or fragment)”, the fold reduction in binding affinity against the wild type was 3 fold.
“JR-JBM chimera R160E/F165S (from UniProt Q9ET78 1-155; Q9ET78 168-440) (domain or fragment)” was tested, and the Kd was 42 µM.
“MBP-JPH2 NT S165F (mouse) (from UniProt Q9ET78 1-440) (domain or fragment)” was tested, and the fold decrease in binding affinity against the wild type was greater than 5 fold.
